# In US20200316226A1:
# Legend:
# [1] = target: CD68 on macrophages of mouse splenocytes (mouse) (UniProt P31996); assay: cell-based or functional assay
# [2] = target: Discoidin domain receptor tyrosine kinase 2 (DDR2) on neonatal rat cardiac fibroblasts (rat); assay: cell-based or functional assay
# Sequence of UniProt P31996 (P31996 21-326): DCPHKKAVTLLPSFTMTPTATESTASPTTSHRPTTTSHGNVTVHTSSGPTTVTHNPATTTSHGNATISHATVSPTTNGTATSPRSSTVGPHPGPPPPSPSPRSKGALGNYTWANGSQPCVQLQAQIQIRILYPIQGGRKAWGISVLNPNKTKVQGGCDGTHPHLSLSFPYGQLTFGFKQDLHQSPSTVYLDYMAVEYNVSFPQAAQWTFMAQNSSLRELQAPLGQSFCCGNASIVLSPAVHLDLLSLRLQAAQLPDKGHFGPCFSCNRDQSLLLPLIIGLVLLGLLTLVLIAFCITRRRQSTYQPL
substance,measurement,setting,value
"biotinylated CD68 monoclonal antibody (bio-CD68), clone FA-11 (ThermoFisher)","macrophage uptake of FITC:CD68-cloaked CDCexo by FACS, 5 minutes of incubation",[1],91%
same,"macrophage uptake of FITC:CD68-cloaked CDCexo by FACS, 15 minutes of incubation",[1],93%
"biotinylated IgG isotype antibody (bio-IgG) control (rabbit IgG isotype control, Abcam cat # ab200208)","rate of uptake of control-cloaked CDCexo by rat cardiac fibroblasts, flow cytometry",[2],5%
same,"uptake of bio-IgG/FITC CDC-EV by neonatal rat cardiac fibroblasts after twelve hours, flow cytometry",[2],5%
